Assay results as given in paper PMC7367873, “Dissecting the sequence determinants for dephosphorylation by the catalytic subunits of phosphatases PP1 and PP2A” (Nature Communications, 2020).

Key:
[1] = test system: GFP-14-3-3β and its binding proteins; test: GFP-14-3-3β co-IP with LC-MS/MS label-free quantification, untreated versus PP1c-treated; set-up: species or system human; conditions: label-free quantification
Procedure: (§1) HeLa Kyoto cells expressing transiently transfected pEGFP(C1)-14-3-3β or pEGFP(C1) control plasmid, were incubated with 20 nM Calyculin A (# 9902 S, Cell Signaling Technology) for 12 min. Cells were washed twice on ice with cold PBS and after addition of 500 µL lysis buffer (100 mM NaCl, 10 mM Tris, 0.1% IGEPAL, 1 mM EDTA, 1 mM EGTA, 20 nM Calyculin A, 1x cOmplete Mini protease inhibitor cocktail (Sigma), 1 mM DTT, 1 mM MnCl2) cells were scraped from plates, lysed by 10 pushes through an injection needle (21 G, BD) and the insoluble fraction was pelleted by centrifugation (10 min, 10^4 rcf, 4 °C). Supernatants were then subjected to incubation with 1 µM recombinant phosphatase or buffer for 1 h at 30 °C. Next, we subjected samples to immunoprecipitation using α-GFP nanobodies covalently coupled to agarose beads (2 h, 4 °C, obtained from the EMBL PEPcore Core Facility). Beads were then washed three times with lysis buffer and samples were eluted in 1x LDS sample buffer (Thermo Fisher Scientific) by heating to 70 °C for 10 min.
(§2) The samples were then reduced with 25 mM dithiothreitol (10 min at 70 °C) and alkylated with 55 mM chloroacetamide (room temperature, 30 min, in the dark). Proteins were run on a precast 4–12% NuPAGE gel (ThermoFisher Scientific) for about 1 cm to concentrate the sample prior to in-gel tryptic digestion, which was performed according to the standard procedures. The peptides obtained were dried to completeness and resuspended in 12 µL of buffer A (0.1% FA), and 5 µL of sample were injected per MS measurement. The experiment was carried out in three independent replicates.
(§3) The samples were analyzed by LC-MS/MS on a Dionex Ultimate 3000 nano-HPLC coupled online to a Fusion Lumos Tribrid mass spectrometer (Thermo Fisher Scientific). Peptides were delivered to a trap column (75 µm × 2 cm, packed in-house with 5 µm C18 resin; Reprosil PUR AQ, Dr. Maisch) and washed using 0.1% FA at a flow rate of 5 µL/min for 10 min. Subsequently, peptides were transferred to an analytical column (75 µm × 45 cm, packed in-house with 3 µm C18 resin; Reprosil Gold) applying a flow rate of 300 nL/min and separated using a 60 min linear gradient from 4% to 32% LC solvent B (0.1% FA, 5% DMSO in ACN) in LC solvent A (0.1% FA in 5% DMSO). The eluate from the analytical column was sprayed via a stainless steel emitter (Thermo Fisher Scientific) at a source voltage of 2.1 kV into the mass spectrometer. The transfer capillary was heated to 275 °C. The Fusion Lumos was operated in positive ionization mode and data-dependent acquisition (DDA), automatically switching between MS1 and MS2 spectrum acquisition. Full scan MS1 spectra were recorded in the Orbitrap from 360 to 1300 m/z at a resolution of 60k (automatic gain control (AGC) target value of 4e5 charges, maximum injection time (maxIT) of 50 ms). Up to 20 peptide precursors were isolated (isolation window, 1.7 m/z; maximum injection time, 25 ms; and AGC value, 1e5), fragmented by high-energy collision-induced dissociation (HCD) using 30% normalized collision energy (NCE), and analyzed at a resolution of 15k in the Orbitrap. Precursor ions that were singly charged, unassigned, or with charge states >6+ were excluded. The dynamic exclusion duration of fragmented precursor ions was 20 s.
(§4) Peptide and protein identification and LFQ were performed using MaxQuant software (version 1.6.1.0)[64] by searching the data against all canonical protein sequences as annotated in the Swissprot reference database (human proteins only, 20193 entries, downloaded 22 March 2016, internally annotated with PFAM domains) using the embedded search engine Andromeda[65]. The MaxQuant search was performed using two variable modifications; oxidation of methionine and N-terminal protein acetylation. Carbamidomethylation on cysteines was specified as a fixed modification. Trypsin (Trypsin/P) was specified as the proteolytic enzyme with up to two allowed missed cleavage sites.

GFP-14-3-3β = GFP-14-3-3β co-IP with LC-MS/MS, untreated GFP-14-3-3β versus GFP control (14-3-3 interactome); format: binding, human; conditions: label-free quantification
Procedure: as §1, §2, §3, §4

Molecule | Difference (log2), PP1 vs untreated ([1]; PP1 vs untreated) [log2] | Difference (log2), PP1 vs untreated ([1]; log2 difference, pairwise comparison PP1 vs untreated, 3 replicates each) | Difference (log2), untreated vs GFP (GFP-14-3-3β; untreated vs GFP) [log2] | Difference (log2), untreated vs GFP (GFP-14-3-3β; log2 difference, pairwise comparison untreated vs GFP, 3 replicates each)
CEP131 (protein, UniProt Q9UPN4 1-1083, looked up) Centrosomal protein of 131 kDa: MKGTRAIGSVPERSPAGVDLSLTGLPPPVSRRPGSAATTKPIVRSVSVVTGSEQKRKVLEATGPGGSQAINNLRRSNSTTQVSQPRSGSPRPTEPTDFLMLFEGSPSGKKRPASLSTAPSEKGATWNVLDDQPRGFTLPSNARSSSALDSPAGPRRKECTVALAPNFTANNRSNKGAVGNCVTTMVHNRYTPSERAPPLKSSNQTAPSLNNIIKAATCEGSESSGFGKLPKNVSSATHSARNNTGGSTGLPRRKEVTEEEAERFIHQVNQATVTIQRWYRHQVQRRGAGAARLEHLLQAKREEQRQRSGEGTLLDLHQQKEAARRKAREEKARQARRAAIQELQQKRALRAQKASTAERGPPENPRETRVPGMRQPAQELSPTPGGTAHQALKANNTGGGLPAAGPGDRCLPTSDSSPEPQQPPEDRTQDVLAQDAAGDNLEMMAPSRGSAKSRGPLEELLHTLQLLEKEPDVLPRPRTHHRGRYAWASEVTTEDDASSLTADNLEKFGKLSAFPEPPEDGTLLSEAKLQSIMSFLDEMEKSGQDQLDSQQEGWVPEAGPGPLELGSEVSTSVMRLKLEVEEKKQAMLLLQRALAQQRDLTARRVKETEKALSRQLQRQREHYEATIQRHLAFIDQLIEDKKVLSEKCEAVVAELKQEDQRCTERVAQAQAQHELEIKKLKELMSATEKARREKWISEKTKKIKEVTVRGLEPEIQKLIARHKQEVRRLKSLHEAELLQSDERASQRCLRQAEELREQLEREKEALGQQERERARQRFQQHLEQEQWALQQQRQRLYSEVAEERERLGQQAARQRAELEELRQQLEESSSALTRALRAEFEKGREEQERRHQMELNTLKQQLELERQAWEAGRTRKEEAWLLNREQELREEIRKGRDKEIELVIHRLEADMALAKEESEKAAESRIKRLRDKYEAELSELEQSERKLQERCSELKGQLGEAEGENLRLQGLVRQKERALEDAQAVNEQLSSERSNLAQVIRQEFEDRLAASEEETRQAKAELATLQARQQLELEEVHRRVKTALARKEEAVSSLRTQHEAAVKRADHLEELLEQHRRPTPSTK | 1.183 |  | 0.2298 | 
ATP2A2 (protein, UniProt P16615 1-1042, looked up) Sarcoplasmic/endoplasmic …: MENAHTKTVEEVLGHFGVNESTGLSLEQVKKLKERWGSNELPAEEGKTLLELVIEQFEDLLVRILLLAACISFVLAWFEEGEETITAFVEPFVILLILVANAIVGVWQERNAENAIEALKEYEPEMGKVYRQDRKSVQRIKAKDIVPGDIVEIAVGDKVPADIRLTSIKSTTLRVDQSILTGESVSVIKHTDPVPDPRAVNQDKKNMLFSGTNIAAGKAMGVVVATGVNTEIGKIRDEMVATEQERTPLQQKLDEFGEQLSKVISLICIAVWIINIGHFNDPVHGGSWIRGAIYYFKIAVALAVAAIPEGLPAVITTCLALGTRRMAKKNAIVRSLPSVETLGCTSVICSDKTGTLTTNQMSVCRMFILDRVEGDTCSLNEFTITGSTYAPIGEVHKDDKPVNCHQYDGLVELATICALCNDSALDYNEAKGVYEKVGEATETALTCLVEKMNVFDTELKGLSKIERANACNSVIKQLMKKEFTLEFSRDRKSMSVYCTPNKPSRTSMSKMFVKGAPEGVIDRCTHIRVGSTKVPMTSGVKQKIMSVIREWGSGSDTLRCLALATHDNPLRREEMHLEDSANFIKYETNLTFVGCVGMLDPPRIEVASSVKLCRQAGIRVIMITGDNKGTAVAICRRIGIFGQDEDVTSKAFTGREFDELNPSAQRDACLNARCFARVEPSHKSKIVEFLQSFDEITAMTGDGVNDAPALKKAEIGIAMGSGTAVAKTASEMVLADDNFSTIVAAVEEGRAIYNNMKQFIRYLISSNVGEVVCIFLTAALGFPEALIPVQLLWVNLVTDGLPATALGFNPPDLDIMNKPPRNPKEPLISGWLFFRYLAIGCYVGAATVGAAAWWFIAADGGPRVSFYQLSHFLQCKEDNPDFEGVDCAIFESPYPMTMALSVLVTIEMCNALNSLSENQSLLRMPPWENIWLVGSICLSMSLHFLILYVEPLPLIFQITPLNVTQWLMVLKISLPVILMDETLKFVARNYLEPGKECVQPATKSCSFSACTDGISWPFVLLIMPLVIWVYSTDTNFSDMFWS | 1.1435 |  | -0.4794 | 
PKP3 (protein, UniProt Q9Y446 1-797, looked up) Plakophilin-3: MQDGNFLLSALQPEAGVCSLALPSDLQLDRRGAEGPEAERLRAARVQEQVRARLLQLGQQPRHNGAAEPEPEAETARGTSRGQYHTLQAGFSSRSQGLSGDKTSGFRPIAKPAYSPASWSSRSAVDLSCSRRLSSAHNGGSAFGAAGYGGAQPTPPMPTRPVSFHERGGVGSRADYDTLSLRSLRLGPGGLDDRYSLVSEQLEPAATSTYRAFAYERQASSSSSRAGGLDWPEATEVSPSRTIRAPAVRTLQRFQSSHRSRGVGGAVPGAVLEPVARAPSVRSLSLSLADSGHLPDVHGFNSYGSHRTLQRLSSGFDDIDLPSAVKYLMASDPNLQVLGAAYIQHKCYSDAAAKKQARSLQAVPRLVKLFNHANQEVQRHATGAMRNLIYDNADNKLALVEENGIFELLRTLREQDDELRKNVTGILWNLSSSDHLKDRLARDTLEQLTDLVLSPLSGAGGPPLIQQNASEAEIFYNATGFLRNLSSASQATRQKMRECHGLVDALVTSINHALDAGKCEDKSVENAVCVLRNLSYRLYDEMPPSALQRLEGRGRRDLAGAPPGEVVGCFTPQSRRLRELPLAADALTFAEVSKDPKGLEWLWSPQIVGLYNRLLQRCELNRHTTEAAAGALQNITAGDRRWAGVLSRLALEQERILNPLLDRVRTADHHQLRSLTGLIRNLSRNARNKDEMSTKVVSHLIEKLPGSVGEKSPPAEVLVNIIAVLNNLVVASPIAARDLLYFDGLRKLIFIKKKRDSPDSEKSSRAASSLLANLWQYNKLHRDFRAKGYRKEDFLGP |  | 2.782 |  | -1.082

The next lines start with results.

Difference (log2), PP1 vs untreated ([1]; PP1 vs untreated) [log2] | Difference (log2), PP1 vs untreated ([1]; log2 difference, pairwise comparison PP1 vs untreated, 3 replicates each) | Molecule | Difference (log2), untreated vs GFP (GFP-14-3-3β; untreated vs GFP) [log2] | Difference (log2), untreated vs GFP (GFP-14-3-3β; log2 difference, pairwise comparison untreated vs GFP, 3 replicates each)
1.1838 |  | GNL3 (protein, UniProt Q9BVP2 1-549, looked up) Guanine nucleotide-binding …: MKRPKLKKASKRMTCHKRYKIQKKVREHHRKLRKEAKKRGHKKPRKDPGVPNSAPFKEALLREAELRKQRLEELKQQQKLDRQKELEKKRKLETNPDIKPSNVEPMEKEFGLCKTENKAKSGKQNSKKLYCQELKKVIEASDVVLEVLDARDPLGCRCPQVEEAIVQSGQKKLVLILNKSDLVPKENLESWLNYLKKELPTVVFRASTKPKDKGKITKRVKAKKNAAPFRSEVCFGKEGLWKLLGGFQETCSKAIRVGVIGFPNVGKSSIINSLKQEQMCNVGVSMGLTRSMQVVPLDKQITIIDSPSFIVSPLNSSSALALRSPASIEVVKPMEAASAILSQADARQVVLKYTVPGYRNSLEFFTVLAQRRGMHQKGGIPNVEGAAKLLWSEWTGASLAYYCHPPTSWTPPPYFNESIVVDMKSGFNLEELEKNNAQSIRAIKGPHLANSILFQSSGLTNGIIEEKDIHEELPKRKERKQEEREDDKDSDQETVDEEVDENSSGMFAAEETGEALSEETTAGEQSTRSFILDKIIEEDDAYDFSTDYV | 2.229 | 
1.129 |  | CD55 (protein, UniProt P08174 35-353, looked up) Complement decay-accelerating …: DCGLPPDVPNAQPALEGRTSFPEDTVITYKCEESFVKIPGEKDSVICLKGSQWSDIEEFCNRSCEVPTRLNSASLKQPYITQNYFPVGTVVEYECRPGYRREPSLSPKLTCLQNLKWSTAVEFCKKKSCPNPGEIRNGQIDVPGGILFGATISFSCNTGYKLFGSTSSFCLISGSSVQWSDPLPECREIYCPAPPQIDNGIIQGERDHYGYRQSVTYACNKGFTMIGEHSIYCTVNNDEGEWSGPPPECRGKSLTSKVPPTVQKPTTVNVPTTEVSPTSQKTTTKTTTPNAQATRSTPVSRTTKHFHETTPNKGSGTTS | -1.764 | 
